Assay results taken from paper PMC11931385, “Structural and functional analysis of cancer-associated missense variants in the retinoblastoma protein pocket domain” (The Journal of Biological Chemistry, 2025).
Changes are numbered by the printed parent chain. Names may count otherwise. No end group written: not given here. TMR = tetramethyl rhodamine dye

T1: Rb^P K548N (human, UniProt P06400 380-788, K548N)
T1 construct: also called variant 26
T1 sequence (looked up): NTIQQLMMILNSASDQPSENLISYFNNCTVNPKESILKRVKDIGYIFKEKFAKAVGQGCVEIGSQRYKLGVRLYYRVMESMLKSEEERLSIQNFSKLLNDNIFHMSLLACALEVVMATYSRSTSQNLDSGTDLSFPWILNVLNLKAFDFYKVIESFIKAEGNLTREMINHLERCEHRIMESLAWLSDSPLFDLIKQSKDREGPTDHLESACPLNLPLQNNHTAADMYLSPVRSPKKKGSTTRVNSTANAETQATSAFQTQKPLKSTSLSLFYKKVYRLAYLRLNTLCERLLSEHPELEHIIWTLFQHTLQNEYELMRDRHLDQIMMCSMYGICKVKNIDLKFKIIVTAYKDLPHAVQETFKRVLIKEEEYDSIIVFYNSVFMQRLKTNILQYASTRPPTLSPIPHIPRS

T2: Rb^P E440K (human, UniProt P06400 380-788, E440K)
T2 construct: also called variant 1
T2 sequence (looked up): T1 sequence (looked up) with E61K, N169K

T3: Rb^P E693A (human, UniProt P06400 380-788, E693A)
T3 construct: also called variant 60
T3 sequence (looked up): T1 sequence (looked up) with N169K, E314A

T4: Rb^P S443L (human, UniProt P06400 380-788, S443L)
T4 construct: also called variant 2
T4 sequence (looked up): T1 sequence (looked up) with S64L, N169K

T5: Rb^P V654L (human, UniProt P06400 380-788, V654L)
T5 construct: also called variant 47
T5 sequence (looked up): T1 sequence (looked up) with N169K, V275L

B1: TMR-E2F1^TD, peptide of the E2F1 transactivation domain (peptide)
peptide: {TMR}-GEGIRDLFDCDFGDLTPLD
notes: also called E2F^TD; source: synthetic peptide, bought: GenScript
B2: TMR-E7^LxCxE, LxCxE peptide of the E7 oncoprotein from HPV (peptide)
peptide: DLYCYEQLN
modifications: also: TMR label, position not given here
notes: source: synthetic peptide, bought: GenScript

Experiments:
Experiment in all cases: fluorescence polarisation; 37 °C, after the 25 °C reading ramped over 7 min to 37 °C and 2 min incubation; unlabeled Rb^P against 1.5 nM TMR-E2F1^TD or 7.5 nM TMR-E7^LxCxE; 25 mM Tris pH 8.0, 200 mM NaCl, 1 mM DTT, 0.1% Tween-20; apparent Kd
Conditions in all cases: both partners purified
Rb^P K548N = biological target: T1, Rb^P K548N
Rb^P E440K = biological target: T2, Rb^P E440K
Rb^P E693A = biological target: T3, Rb^P E693A
Rb^P S443L = biological target: T4, Rb^P S443L
Rb^P V654L = biological target: T5, Rb^P V654L

| Binder | Kd (Rb^P K548N) | Kd (Rb^P E440K) | Kd (Rb^P E693A) | Kd (Rb^P S443L) | Kd (Rb^P V654L) |
| --- | --- | --- | --- | --- | --- |
| B1 | 178 nM | 27 nM | 59 nM | 55 nM | 30 nM |
| B2 | 15 nM | 13 nM | 24 nM | 21 nM | 21 nM |
